Reference: patent US5559019A, “Protein serine kinase, SRPK1” (The Regents of the University of California, priority 1994, dated 1996)

Substrate: Nc1ncnc2c1ncn2[C@@H]1O[C@H](COP(=O)(O)OP(=O)(O)OP(=O)(O)O)[C@@H](O)[C@H]1O
Assay: SRPK1 kinase assay, determination of Km for ATP (double-reciprocal plots, SF2/ASF as substrate)
Type: biochemical, human
Details: other: ATP titrated against four SF2/ASF concentrations (bacterially expressed SF2/ASF as substrate), pH 7.4, 30.0 °C
Description: FIG. 7 describes the kinetic properties of SRPK1. […] Different ATP concentrations were titrated against four SF2/ASF concentrations (.diamond-solid.0.05 μM; .circle-solid.0.1 μM; Δ0.05 μM; .diamond.0.7 μM). […] Five SF2/ASF concentrations (0.05 μM, 0.1 μM, 0.25 μM, 0.5 μM, and 1.0 μM) and four MBP concentrations (2.5 μM, 5.0 μM, 12.5 μM, and 25 μM) were used in the phosphorylation reactions. Saturating ATP (100 μM) and SRPK1 (27,000 units) were used in these reactions.
0.5 μg of purified SC35 or SF2/ASF was used as a substrate in a final volume of 20 μl kinase assay mixture containing 50 mM Tris-pH7.4, 10 mM MgCl2, 1 mM DTT, 2 μM ATP, and 2 μCi [^32 P-]ATP. The reaction was initiated by adding 2 μl of each column fraction and incubated at room temperature for 15 min. Proteins were, resolved in a 12.5% SDS gel. After staining and autoradiography, gel slices containing radioactive proteins were quantitated in a liquid scintillation counter. For saturation phosphorylation of SF2/ASF, 100 μM ATP was used, and the reaction was carried out at 30° C. for 2 hours.
SRPK1 is specific for splicing factors containing an SR domain as shown in EXAMPLE 4. Kinetic analyses were carried out to further characterize the kinase. […] The kinase activity depended on ATP concentration with a Km for ATP of 10 μM (FIG. 7A). […]

B1: SRPK1 (SR protein-specific kinase, 92 kD) purified from Hela cell S100 extracts, SEQ ID NO:2 (Homo sapiens) (protein)
chain: MERKVLALQARKKRTKAKKDKAQRKSETQHRGSAPHSESDLPEQEEEILGSDDDEQEDPNDYCKGGYHLVKIGDLFNGRYHVIRKLGWGHFSTVWLSWDIQGKKFVAMKVVKSAEHYTETALDEIRLLKSVRNSDPNDPNREMVVQLLDDFKISGVNGTHICMVFEVLGHHLLKWIIKSNYQGLPLPCVKKIIQQVLQGLDYLHTKCRIIHTDIKPENILLSVNEQYIRRLAAEATEWQRSGAPPPSGSAVSTAPQPKPADKMSKNKKKKLKKKQKRQAELLEKRMQEIEEMEKESGPGQKRPNKQEESESPVERPLKENPPNKMTQEKLEESSTIGQDQTLMERDTEGGAAEINCNGVIEVINYTQNSNNETLRHKEDLHNANDCDVQNLNQESSFLSSQNGDSSTSQETDSCTPITSEVSDTMVCQSSSTVGQSFSEQHISQLQESIRAEIPCEDEQEQEHNGPLDNKGKSTAGNFLVNPLEPKNAEKLKVKIADLGNACWVHKHFTEDIQTRQYRSLEVLIGSGYNTPADIWSTACMAFELATGDYLFEPHSGEEYTRDEDHIALIIELLGKVPRKLIVAGKYSKEFFTKKGDLKHITKLKPWGLFEVLVEKYEWSQEEAAGFTDFLLPMLELIPEKRATAAECLRHPWLNS
notes: SRPK1 PURIFICATION FROM HELA CELL S100 EXTRACTS; endogenous in cells; host or cells: HeLa cells (S100 extract; phosphocellulose P11, Phenyl Sepharose, Mono Q, Mono S)
Protein B1 has a Km of 10 µM.
